Data from CN114591430A.
Values joined by “and” are separate entries in the source; they are usually repeats but may differ in a detail not shown here. Identical values can stand only once.

Assays:
牛血清白蛋白(BSA) (bovine) [1] = target: 牛血清白蛋白(BSA) (bovine) (UniProt P02769); assay: indirect ELISA, BSA coated at 1 ug/ml, purified antibody at dilution 256K, HRP goat anti-mouse IgG
牛血清白蛋白(BSA) (bovine) [2] = target: 牛血清白蛋白(BSA) (bovine) (UniProt P02769); assay: sandwich ELISA, coat B2 2 ug/ml, BSA 3 ng/ml, detection biotin-B6 0.2 ug/ml
牛血清白蛋白(BSA) (bovine) [3] = target: 牛血清白蛋白(BSA) (bovine) (UniProt P02769); assay: indirect ELISA, BSA coated at 1 ug/ml, purified antibody at dilution 8K, HRP goat anti-mouse IgG
牛血清白蛋白(BSA) (bovine) [4] = target: 牛血清白蛋白(BSA) (bovine) (UniProt P02769); assay: sandwich ELISA, coat B2 2 ug/ml, BSA 1 ng/ml, detection biotin-B4 0.2 ug/ml
牛血清白蛋白(BSA) (bovine) [5] = target: 牛血清白蛋白(BSA) (bovine) (UniProt P02769); assay: sandwich ELISA, coat B2 2 ug/ml, BSA 24 ng/ml, detection biotin-B6 0.2 ug/ml, mean of A and B
牛血清白蛋白(BSA) (bovine) [6] = target: 牛血清白蛋白(BSA) (bovine) (UniProt P02769); assay: ELISA, BSA coated at 1 ug/ml, biotin-labelled antibody at dilution 16K, HRP-avidin
牛血清白蛋白(BSA) (bovine) [7] = target: 牛血清白蛋白(BSA) (bovine) (UniProt P02769); assay: sandwich ELISA, coat B2 2 ug/ml, BSA 1 ng/ml, detection biotin-B5 0.2 ug/ml
牛血清白蛋白(BSA) (bovine) [8] = target: 牛血清白蛋白(BSA) (bovine) (UniProt P02769); assay: sandwich ELISA, coat B2 2 ug/ml, BSA 12 ng/ml, detection biotin-B6 0.2 ug/ml
牛血清白蛋白(BSA) (bovine) [9] = target: 牛血清白蛋白(BSA) (bovine) (UniProt P02769); assay: sandwich ELISA, coat B2 2 ug/ml, BSA 12 ng/ml, detection biotin-B6 0.2 ug/ml, mean of A and B
牛血清白蛋白(BSA) (bovine) [10] = target: 牛血清白蛋白(BSA) (bovine) (UniProt P02769); assay: sandwich ELISA, coat B2 2 ug/ml, BSA 1 ng/ml, detection biotin-B3 0.2 ug/ml
牛血清白蛋白(BSA) (bovine) [11] = target: 牛血清白蛋白(BSA) (bovine) (UniProt P02769); assay: indirect ELISA, BSA coated at 1 ug/ml, purified antibody at dilution 4K, HRP goat anti-mouse IgG
牛血清白蛋白(BSA) (bovine) [12] = target: 牛血清白蛋白(BSA) (bovine) (UniProt P02769); assay: sandwich ELISA, coat B2 2 ug/ml, BSA 1.5 ng/ml, detection biotin-B6 0.2 ug/ml
牛血清白蛋白(BSA) (bovine) [13] = target: 牛血清白蛋白(BSA) (bovine) (UniProt P02769); assay: indirect ELISA, BSA coated at 1 ug/ml, purified antibody at dilution 2K, HRP goat anti-mouse IgG
HEK293细胞裂解液 [14] = assay: sandwich ELISA, coat B2, detection biotin-B6, lysate 250 ug/ml
CHO细胞裂解液 [15] = assay: as above
Vero细胞裂解液 [16] = assay: as above
牛血清白蛋白(BSA) (bovine) [17] = target: 牛血清白蛋白(BSA) (bovine) (UniProt P02769); assay: ELISA, BSA coated at 1 ug/ml, biotin-labelled antibody at dilution 4K, HRP-avidin
HEK293细胞裂解液 [18] = assay: sandwich ELISA, coat B2, detection biotin-B6, lysate 31.25 ug/ml
CHO细胞裂解液 [19] = assay: as above
Vero细胞裂解液 [20] = assay: as above
HEK293细胞裂解液 [21] = assay: sandwich ELISA, coat B2, detection biotin-B6, lysate 62.5 ug/ml
CHO细胞裂解液 [22] = assay: as above
Vero细胞裂解液 [23] = assay: as above
牛血清白蛋白(BSA) (bovine) [24] = target: 牛血清白蛋白(BSA) (bovine) (UniProt P02769); assay: ELISA, BSA coated at 1 ug/ml, biotin-labelled antibody at dilution 8K, HRP-avidin
HEK293细胞裂解液 [25] = assay: sandwich ELISA, coat B2, detection biotin-B6, lysate 7.81 ug/ml
CHO细胞裂解液 [26] = assay: as above
Vero细胞裂解液 [27] = assay: as above
牛血清白蛋白(BSA) (bovine) [28] = target: 牛血清白蛋白(BSA) (bovine) (UniProt P02769); assay: ELISA, BSA coated at 1 ug/ml, biotin-labelled antibody at dilution 32K, HRP-avidin
牛血清白蛋白(BSA) (bovine) [29] = target: 牛血清白蛋白(BSA) (bovine) (UniProt P02769); assay: indirect ELISA, BSA coated at 1 ug/ml, purified antibody at dilution 1024K, HRP goat anti-mouse IgG
牛血清白蛋白(BSA) (bovine) [30] = target: 牛血清白蛋白(BSA) (bovine) (UniProt P02769); assay: sandwich ELISA, coat B2 2 ug/ml, BSA 6 ng/ml, detection biotin-B6 0.2 ug/ml, mean of A and B
牛血清白蛋白(BSA) (bovine) [31] = target: 牛血清白蛋白(BSA) (bovine) (UniProt P02769); assay: sandwich ELISA, coat B2 2 ug/ml, BSA 48 ng/ml, detection biotin-B6 0.2 ug/ml
牛血清白蛋白(BSA) (bovine) [32] = target: 牛血清白蛋白(BSA) (bovine) (UniProt P02769); assay: sandwich ELISA, coat B2 2 ug/ml, BSA 1 ng/ml, detection biotin-B6 0.2 ug/ml
牛血清白蛋白(BSA) (bovine) [33] = target: 牛血清白蛋白(BSA) (bovine) (UniProt P02769); assay: sandwich ELISA, coat B2 2 ug/ml, BSA 1.5 ng/ml, detection biotin-B6 0.2 ug/ml, mean of A and B
牛血清白蛋白(BSA) (bovine) [34] = target: 牛血清白蛋白(BSA) (bovine) (UniProt P02769); assay: indirect ELISA, BSA coated at 1 ug/ml, purified antibody at dilution 128K, HRP goat anti-mouse IgG
牛血清白蛋白(BSA) (bovine) [35] = target: 牛血清白蛋白(BSA) (bovine) (UniProt P02769); assay: sandwich ELISA, coat B2 2 ug/ml, BSA 0.75 ng/ml, detection biotin-B6 0.2 ug/ml, mean of A and B

Chain of UniProt P02769 (P02769 25-607): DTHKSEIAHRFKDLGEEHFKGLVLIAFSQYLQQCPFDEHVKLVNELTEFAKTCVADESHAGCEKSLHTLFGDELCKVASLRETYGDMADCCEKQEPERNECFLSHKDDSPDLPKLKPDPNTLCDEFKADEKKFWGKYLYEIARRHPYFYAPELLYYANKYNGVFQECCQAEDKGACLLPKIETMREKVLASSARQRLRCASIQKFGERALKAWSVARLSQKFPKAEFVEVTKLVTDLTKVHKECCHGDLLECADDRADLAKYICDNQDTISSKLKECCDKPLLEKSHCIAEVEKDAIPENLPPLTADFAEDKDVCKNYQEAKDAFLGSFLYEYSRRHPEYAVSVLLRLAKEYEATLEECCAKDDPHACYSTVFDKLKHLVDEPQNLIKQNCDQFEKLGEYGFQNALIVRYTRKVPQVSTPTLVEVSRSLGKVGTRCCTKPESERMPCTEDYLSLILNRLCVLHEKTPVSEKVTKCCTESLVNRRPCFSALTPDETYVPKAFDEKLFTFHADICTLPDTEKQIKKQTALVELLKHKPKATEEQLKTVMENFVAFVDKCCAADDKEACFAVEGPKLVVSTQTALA

B1: BSA抗体B2 (antibody, V domains shown)
VH: VKLQESGGGLVKPGGSLKLSCAASGFTFSLYDESWVRQTPEKRLEWVAEIFLGVYRYVPESKVRFTMSRDNAKNTLYLQMSSLRSEDTAMYYCVRLCYWEPEVKKCWGQGTTVTVSS
VL: DIELTQSPLTLSVTIGQPASISCESDLSLKESLDWLLQRPGQSPKRLIYEDLNADCGVPDRFTGSGSGTDSTLKISRVEAEDLGVYYCEIKGTFRWSFGGGTKLEIK
- OD450 (牛血清白蛋白(BSA) (bovine) [1]): 0.208
- OD450 (牛血清白蛋白(BSA) (bovine) [2]): 0.509 and 0.515
- OD450 (牛血清白蛋白(BSA) (bovine) [3]): 0.728
- OD450 (牛血清白蛋白(BSA) (bovine) [4]): 0.319 and 0.332
- OD450 (平均值) (牛血清白蛋白(BSA) (bovine) [5]): 1.5
- OD450 (牛血清白蛋白(BSA) (bovine) [6]): 1.6
- OD450 (牛血清白蛋白(BSA) (bovine) [7]): 0.312 and 0.315
- OD450 (牛血清白蛋白(BSA) (bovine) [8]): 1.01 and 1
- OD450 (平均值) (牛血清白蛋白(BSA) (bovine) [9]): 1
- OD450 (牛血清白蛋白(BSA) (bovine) [10]): 0.342 and 0.346
- OD450 (牛血清白蛋白(BSA) (bovine) [11]): 0.9
- OD450 (牛血清白蛋白(BSA) (bovine) [12]): 0.404 and 0.412
- OD450 (牛血清白蛋白(BSA) (bovine) [13]): 1.69
- OD450 (HEK293细胞裂解液 [14]): 0.134
- OD450 (CHO细胞裂解液 [15]): 0.134
- OD450 (Vero细胞裂解液 [16]): 0.14
- OD450 (牛血清白蛋白(BSA) (bovine) [17]): 2.02
- OD450 (HEK293细胞裂解液 [18]): 0.134
- OD450 (CHO细胞裂解液 [19]): 0.136
- OD450 (Vero细胞裂解液 [20]): 0.142
- OD450 (HEK293细胞裂解液 [21]): 0.142
- OD450 (CHO细胞裂解液 [22]): 0.129
- OD450 (Vero细胞裂解液 [23]): 0.137
- OD450 (牛血清白蛋白(BSA) (bovine) [24]): 1.81
- OD450 (HEK293细胞裂解液 [25]): 0.132
- OD450 (CHO细胞裂解液 [26]): 0.136
- OD450 (Vero细胞裂解液 [27]): 0.138
- OD450 (牛血清白蛋白(BSA) (bovine) [28]): 1.22
- OD450 (牛血清白蛋白(BSA) (bovine) [29]): 0.144
- OD450 (平均值) (牛血清白蛋白(BSA) (bovine) [30]): 0.688
- OD450 (牛血清白蛋白(BSA) (bovine) [31]): 2.2 and 2.21
- OD450 (牛血清白蛋白(BSA) (bovine) [32]): 0.38 and 0.378
- OD450 (平均值) (牛血清白蛋白(BSA) (bovine) [33]): 0.408
- OD450 (牛血清白蛋白(BSA) (bovine) [34]): 0.357
- OD450 (平均值) (牛血清白蛋白(BSA) (bovine) [35]): 0.303
